Seven molecules from article PMC8455438 (Molecular cell, 2021) can be followed below.

Like-named read-outs stand apart in the source and are kept apart here.

Series [1] deals with the molecule itself. The experiment in a line: native gel or EMSA.
Series [2] concerns the molecule itself. The experiment in a line: native gel or EMSA. This is another data set of the same source.
For series [3], the target named is T1, Recombinant IDH2 (R140Q) protein (ACTIVE MOTIF) (human, UniProt P48735 40-452, R140Q).
T1 sequence (looked up): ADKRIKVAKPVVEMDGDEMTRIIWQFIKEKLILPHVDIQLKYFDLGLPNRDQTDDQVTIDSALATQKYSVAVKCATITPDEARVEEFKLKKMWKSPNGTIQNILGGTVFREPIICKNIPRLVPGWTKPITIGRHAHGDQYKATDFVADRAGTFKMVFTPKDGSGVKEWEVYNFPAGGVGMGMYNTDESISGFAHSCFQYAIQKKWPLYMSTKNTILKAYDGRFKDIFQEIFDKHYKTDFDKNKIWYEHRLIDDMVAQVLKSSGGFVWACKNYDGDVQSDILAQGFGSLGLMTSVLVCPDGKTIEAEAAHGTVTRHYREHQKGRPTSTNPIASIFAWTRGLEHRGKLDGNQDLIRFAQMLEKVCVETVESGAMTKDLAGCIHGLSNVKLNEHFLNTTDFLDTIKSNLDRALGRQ
Description: co-IP.

B1: 6xHis-IDH2 R140Q-FLAG, K413 not acetylated (pre-treated with cobB protein deacetylase, or deacetylated by rSIRT3) (enzyme, human, UniProt P48735 40-452, looked up)
chain: ADKRIKVAKPVVEMDGDEMTRIIWQFIKEKLILPHVDIQLKYFDLGLPNRDQTDDQVTIDSALATQKYSVAVKCATITPDEARVEEFKLKKMWKSPNGTIQNILGGTVFREPIICKNIPRLVPGWTKPITIGRHAHGDQYKATDFVADRAGTFKMVFTPKDGSGVKEWEVYNFPAGGVGMGMYNTDESISGFAHSCFQYAIQKKWPLYMSTKNTILKAYDGRFKDIFQEIFDKHYKTDFDKNKIWYEHRLIDDMVAQVLKSSGGFVWACKNYDGDVQSDILAQGFGSLGLMTSVLVCPDGKTIEAEAAHGTVTRHYREHQKGRPTSTNPIASIFAWTRGLEHRGKLDGNQDLIRFAQMLEKVCVETVESGAMTKDLAGCIHGLSNVKLNEHFLNTTDFLDTIKSNLDRALGRQ
Turning to B1, the “stoichiometry N” value in “native gel or EMSA [1]” was found to be 2.

B2: 6xHis-IDH2 R140Q-FLAG, K413-acetylated (by rACAT1 after cobB pre-treatment, or with intrinsic lysine acetylation obtained in bacteria) (enzyme, human, UniProt P48735 40-452, looked up)
chain: ADKRIKVAKPVVEMDGDEMTRIIWQFIKEKLILPHVDIQLKYFDLGLPNRDQTDDQVTIDSALATQKYSVAVKCATITPDEARVEEFKLKKMWKSPNGTIQNILGGTVFREPIICKNIPRLVPGWTKPITIGRHAHGDQYKATDFVADRAGTFKMVFTPKDGSGVKEWEVYNFPAGGVGMGMYNTDESISGFAHSCFQYAIQKKWPLYMSTKNTILKAYDGRFKDIFQEIFDKHYKTDFDKNKIWYEHRLIDDMVAQVLKSSGGFVWACKNYDGDVQSDILAQGFGSLGLMTSVLVCPDGKTIEAEAAHGTVTRHYREHQKGRPTSTNPIASIFAWTRGLEHRGKLDGNQDLIRFAQMLEKVCVETVESGAMTKDLAGCIHGLSNVKLNEHFLNTTDFLDTIKSNLDRALGRQ
modifications: acetyl-lysine at K413 (rACAT1 acetylates mutant IDH2 at multiple lysine sites; intrinsic lysine acetylation obtained in bacteria)
Consider B2, for which the “stoichiometry N” value in the series “native gel or EMSA [2]” was 2.

B3: 6xHis-IDH2 R140Q/K413R-FLAG (acetyl-deficient) (enzyme, human, UniProt P48735 40-452, looked up)
chain: ADKRIKVAKPVVEMDGDEMTRIIWQFIKEKLILPHVDIQLKYFDLGLPNRDQTDDQVTIDSALATQKYSVAVKCATITPDEARVEEFKLKKMWKSPNGTIQNILGGTVFREPIICKNIPRLVPGWTKPITIGRHAHGDQYKATDFVADRAGTFKMVFTPKDGSGVKEWEVYNFPAGGVGMGMYNTDESISGFAHSCFQYAIQKKWPLYMSTKNTILKAYDGRFKDIFQEIFDKHYKTDFDKNKIWYEHRLIDDMVAQVLKSSGGFVWACKNYDGDVQSDILAQGFGSLGLMTSVLVCPDGKTIEAEAAHGTVTRHYREHQKGRPTSTNPIASIFAWTRGLEHRGKLDGNQDLIRFAQMLEKVCVETVESGAMTRDLAGCIHGLSNVKLNEHFLNTTDFLDTIKSNLDRALGRQ
As to B3, in “native gel or EMSA [1]”, the “stoichiometry N” value was found to be 2.

B4: 6xHis-IDH2 R140Q/K413Q-FLAG (acetyl-mimetic) (enzyme, human, UniProt P48735 40-452, looked up)
chain: ADKRIKVAKPVVEMDGDEMTRIIWQFIKEKLILPHVDIQLKYFDLGLPNRDQTDDQVTIDSALATQKYSVAVKCATITPDEARVEEFKLKKMWKSPNGTIQNILGGTVFREPIICKNIPRLVPGWTKPITIGRHAHGDQYKATDFVADRAGTFKMVFTPKDGSGVKEWEVYNFPAGGVGMGMYNTDESISGFAHSCFQYAIQKKWPLYMSTKNTILKAYDGRFKDIFQEIFDKHYKTDFDKNKIWYEHRLIDDMVAQVLKSSGGFVWACKNYDGDVQSDILAQGFGSLGLMTSVLVCPDGKTIEAEAAHGTVTRHYREHQKGRPTSTNPIASIFAWTRGLEHRGKLDGNQDLIRFAQMLEKVCVETVESGAMTQDLAGCIHGLSNVKLNEHFLNTTDFLDTIKSNLDRALGRQ
For the molecule B4, the “stoichiometry N” value in “native gel or EMSA [1]” amounted to 2.

B5: recombinant ACAT1 (mitochondrial acetyl-coA acetyltransferase), wild type (enzyme, UniProt P24752 34-427, looked up)
chain: VSKPTLKEVVIVSATRTPIGSFLGSLSLLPATKLGSIAIQGAIEKAGIPKEEVKEAYMGNVLQGGEGQAPTRQAVLGAGLPISTPCTTINKVCASGMKAIMMASQSLMCGHQDVMVAGGMESMSNVPYVMNRGSTPYGGVKLEDLIVKDGLTDVYNKIHMGSCAENTAKKLNIARNEQDAYAINSYTRSKAAWEAGKFGNEVIPVTVTVKGQPDVVVKEDEEYKRVDFSKVPKLKTVFQKENGTVTAANASTLNDGAAALVLMTADAAKRLNVTPLARIVAFADAAVEPIDFPIAPVYAASMVLKDVGLKKEDIAMWEVNEAFSLVVLANIKMLEIDPQKVNINGGAVSLGHPIGMSGARIVGHLTHALKQGEYGLASICNGGGGASAMLIQKL
For B5, the binding result in series [3] is recorded as “binds”.

B6: recombinant ACAT1 treated with rFLT3 (Y407-phosphorylated) (enzyme, UniProt P24752 34-427, looked up)
chain: VSKPTLKEVVIVSATRTPIGSFLGSLSLLPATKLGSIAIQGAIEKAGIPKEEVKEAYMGNVLQGGEGQAPTRQAVLGAGLPISTPCTTINKVCASGMKAIMMASQSLMCGHQDVMVAGGMESMSNVPYVMNRGSTPYGGVKLEDLIVKDGLTDVYNKIHMGSCAENTAKKLNIARNEQDAYAINSYTRSKAAWEAGKFGNEVIPVTVTVKGQPDVVVKEDEEYKRVDFSKVPKLKTVFQKENGTVTAANASTLNDGAAALVLMTADAAKRLNVTPLARIVAFADAAVEPIDFPIAPVYAASMVLKDVGLKKEDIAMWEVNEAFSLVVLANIKMLEIDPQKVNINGGAVSLGHPIGMSGARIVGHLTHALKQGEYGLASICNGGGGASAMLIQKL
modifications: phosphotyrosine at Y407 (by rFLT3)
B6: the binding result in series [3] is “binds”.

B7: recombinant ACAT1 Y407F (phosphor-deficient mutant) (enzyme, UniProt P24752 34-427, looked up)
chain: VSKPTLKEVVIVSATRTPIGSFLGSLSLLPATKLGSIAIQGAIEKAGIPKEEVKEAYMGNVLQGGEGQAPTRQAVLGAGLPISTPCTTINKVCASGMKAIMMASQSLMCGHQDVMVAGGMESMSNVPYVMNRGSTPYGGVKLEDLIVKDGLTDVYNKIHMGSCAENTAKKLNIARNEQDAYAINSYTRSKAAWEAGKFGNEVIPVTVTVKGQPDVVVKEDEEYKRVDFSKVPKLKTVFQKENGTVTAANASTLNDGAAALVLMTADAAKRLNVTPLARIVAFADAAVEPIDFPIAPVYAASMVLKDVGLKKEDIAMWEVNEAFSLVVLANIKMLEIDPQKVNINGGAVSLGHPIGMSGARIVGHLTHALKQGEFGLASICNGGGGASAMLIQKL
Take B7: in series [3], the binding result is given as “binds”.
